Test results reported in publication PMC4978220.

Biological target: full-length PbgA protein with a carboxyl-terminal 6XHis tag (S. Typhimurium)
Test: SEC-MALS

full-length PbgA protein with a carboxyl-terminal 6XHis tag (natural protein)
stoichiometry N: 4
